Measured values taken from patent US20090018093.
Where two headings read alike, the source gives them in different places.

Experiments:
[1] = test system: Immunoglobulin E (IgE) (Homo sapiens), P01854-1; test: filter
[2] = test system: Immunoglobulin E (IgE) (Homo sapiens), P01854-1; test: inhibition

Immunoglobulin E (IgE) (Homo sapiens), P01854-1, sequence (P01854 other isoform, or with tags, fused parts or gaps): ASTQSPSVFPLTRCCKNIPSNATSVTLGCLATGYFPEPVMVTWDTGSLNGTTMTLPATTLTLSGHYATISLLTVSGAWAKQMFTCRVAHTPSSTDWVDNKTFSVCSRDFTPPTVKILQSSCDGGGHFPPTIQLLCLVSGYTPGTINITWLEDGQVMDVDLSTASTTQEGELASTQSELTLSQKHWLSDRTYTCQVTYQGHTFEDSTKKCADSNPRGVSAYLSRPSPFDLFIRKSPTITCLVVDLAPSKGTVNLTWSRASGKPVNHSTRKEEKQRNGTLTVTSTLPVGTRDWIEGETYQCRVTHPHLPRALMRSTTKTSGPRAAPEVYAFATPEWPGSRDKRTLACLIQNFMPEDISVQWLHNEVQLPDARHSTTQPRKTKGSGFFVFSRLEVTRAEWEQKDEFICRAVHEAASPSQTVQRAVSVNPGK

Sequence AGCCUGGGGACCCAUGGGGGGCU [ARC1643] has a Kd ([1]; 2'-OMe/2'-deoxy mix, dI20, PS, 3' idT [20=dI (G parent), 24=3' inverted dT, phosphorothioate linkage N's left out (5^6, 7^8, 8^9, 15^16, 17^18, 18^19, 19^20, 20^21)], DPBS Mg/Ca, 0.1 mg/mL BSA, RT) of 1.1 nM and an IC50 ([2]; 2'-OMe/2'-deoxy mix, dI20, PS, 3' idT [20=dI (G parent), 24=3' inverted dT, phosphorothioate linkage N's left out (5^6, 7^8, 8^9, 15^16, 17^18, 18^19, 19^20, 20^21)], FACS, 2.5 nM IgE) of 8 nM.

Sequence “GGGGCTACTTTATCCGTTCCTCCTAGTGGGTAGCCCC [ARC656]” has an IC50 ([2]; 3' idT [3' idT left out], FACS, 2.5 nM IgE, histamine release IC50 16.9 nM) of 21.2 nM.

With AGCCUGGGGACCCAUGGGGGGCU [ARC1728] the Kd ([1]; 2'-OMe/2'-deoxy mix, dI, PS, 3' idT [18=dI, 20=dI (G parent), 24=3' inverted dT, phosphorothioate linkage N's left out (5^6, 7^8, 8^9, 15^16, 17^18, 18^19, 19^20, 20^21)], DPBS Mg/Ca, 0.1 mg/mL BSA, RT) was 2.3 nM and the IC50 ([2]; 2'-OMe/2'-deoxy mix, dI, PS, 3' idT [18=dI, 20=dI (G parent), 24=3' inverted dT, phosphorothioate linkage N's left out (5^6, 7^8, 8^9, 15^16, 17^18, 18^19, 19^20, 20^21)], FACS, 2.5 nM IgE) was 13.2 nM.

For “GGGGCTACTTTATCCGTTCCTCCTAGTGGGTAGCCCC [ARC480]”, the Kd [1] was 0.2 nM and the IC50 ([2]; FACS, 15 nM IgE) was 9.7 nM.

“GGGAAAAGCGAAUCAUACACAAGAGGUCUUACAGAUCCUGUGUAGUGGUUCGAUACAUGCGGGGCUCCGCCAGAGACCAACCGAGAA [rRfY clone SEQ 14]” showed a Kd ([1]; 2'-F C and U, biphasic, KD2 99.5 nM, 1xSHMCK + tRNA, RT) of 1.08 nM and an IC50 ([2]; 2'-F C,U, ELISA FceR1-Fc, FACS 17.3 nM (Table 25)) of 26.8 nM.

“GGAAAAGCGAAUCAUACACAAGAGUCGCGAUAGAUUGCUUGUGAAUGGUUUUGGUGGAAGCGGGCUCCGCCAGAGACCAACCGAGAA [rRfY clone SEQ 12]” gave a Kd ([1]; 2'-F C and U, biphasic, KD2 9.85 nM, 1xSHMCK + 0.1 mg/mL tRNA, RT) of 0.057 nM and an IC50 ([2]; 2'-F C,U, ELISA FceR1-Fc, FACS 7.1 nM (Table 25)) of 5 nM.

Work on “GGGGCTACTTTATCCGTACCTCCCAGTGGGTAGCCCC [ARC476]” yielded a Kd [1] of 0.2 nM and an IC50 ([2]; FACS, 15 nM IgE) of 17.4 nM.

Work on “NNAGCCUGGGNGACCCAUNNNGNNGNNGCUN [ARC1788]” yielded an IC50 ([2]; ARC1666 chemistry, 5' 60 kDa branched PEG, 3' idT, FACS, IgE-FceR1 on SX38 cells) of 1.2 nM.

With AGCCUGGGGACCCAUGGGGGGCU [ARC1337] the Kd ([1]; as printed dA-s-mGmCmCmUdGmGdGdG-s-mAmCmCmCmAmU-s-dG-s-mGdGdGdG-s-dGmCmU-3T [deoxy: 1,6,8,9,16,18-21, 2'-OMe: 2-5,7,10-15,17,22,23, phosphorothioate after 1,9,15,16,20 (also after 18 per given string), 24 = 3' inverted dT], dPBS Ca/Mg + BSA, RT) was 0.2 nM and the IC50 ([2]; 2'-OMe/2'-deoxy mix, PS, 3' idT [PS after 1,9,15,16,18,20, 2'-OMe/2'-deoxy mix, 3' idT left out], FACS, 2.5 nM IgE) was 4.7 nM.

GCCUGGGGACCCAUGGGGGGC [ARC444] showed a Kd ([1]; dRmY: 2'-deoxy A,G, 2'-OMe C,U, 1xPBS, BSA, tRNA, ssDNA, 25 C) of 73 nM and an IC50 ([2]; 2'-OMe C,U, deoxy A,G, FACS, 15 nM IgE) of 52.4 nM.

AGCCUGGGGACCCAUGGGGGGCU [ARC1383] gave a Kd ([1]; 2'-OMe/2'-deoxy mix, PS linkages as in Table 17, 3' idT [phosphorothioate linkages (internal N, left out) between 8-9, 15-16, 18-19, 20-21, 2'-OMe/2'-deoxy mix (positions not given), 3' inverted dT at 24], DPBS Mg/Ca, 0.1 mg/mL BSA, RT) of 1 nM and an IC50 ([2]; 2'-OMe/2'-deoxy mix, PS linkages as in Table 17, 3' idT [phosphorothioate linkages (internal N, left out) between 8-9, 15-16, 18-19, 20-21, 2'-OMe/2'-deoxy mix (positions not given), 3' inverted dT at 24], FACS, 2.5 nM IgE) of 7.5 nM.

“GGGAAAAGCGAAUCAUACACAAGAGUGCCGAGGCAUUGCUUGGUAUGGUUCCGGUCUUGUCGGGGCUCCGCCAGAGACCAACCGAGAA [rRfY clone SEQ 19]” gave a Kd ([1]; 2'-F C and U, biphasic, KD2 17.4 nM, 1xSHMCK + tRNA, RT) of 0.095 nM and an IC50 ([2]; 2'-F C,U, ELISA FceR1-Fc, FACS 9.9 nM (Table 25)) of 7.4 nM.

AGCCUGGGGACCCAUGGGGGGCU [ARC1785] gave an IC50 ([2]; ARC1666 chemistry, 5' and 3' 20 kDa PEG [dI at 16,18,20 (written as parent G), PS after 8,15,16,18,20, 2'-OMe/2'-deoxy mix (ARC1666 chemistry), 5' and 3' amine linker-20 kDa PEG left out], FACS, IgE-FceR1 on SX38 cells) of 2 nM.

AGCCUGGGGACCCAUGGGGGGCU [ARC1790] gave an IC50 ([2]; ARC1666 chemistry, 5' and 3' 30 kDa PEG [dI at 16,18,20 (written as parent G), PS after 8,15,16,18,20, 2'-OMe/2'-deoxy mix (ARC1666 chemistry), 5' and 3' amine linker-30 kDa PEG left out], FACS, IgE-FceR1 on SX38 cells) of 0.89 nM.

Sequence “NNAGCCUGGGNGACCCAUNNNGNNGNNGCUN [ARC1787]” has an IC50 ([2]; ARC1666 chemistry, 5' 40 kDa branched PEG, 3' idT, FACS, IgE-FceR1 on SX38 cells) of 1.2 nM.

Work on “GGGGCTACTTTATCCGTUCCTCCTAGTGGGTAGCCCCN [ARC1282]” yielded a Kd ([1]; 2'-OMe U at 18, 3' idT, DPBS Mg/Ca, BSA) of 0.2 nM.

Sequence “GGGGCUACTTTATCCGTTCCTCCTAGTGGGTAGCCCC [ARC1388]” has a Kd ([1]; 2'-OMe at 1-8,33-37, 3' idT [2'-OMe: 1-8,33-37, 38 = 3' inverted dT], DPBS Mg/Ca, BSA) of 4.4 nM.

In the case of “AGCCNUGGGNGACCCAUNNNGNNGNNGCUN [ARC2972]”, the Kd ([1]; ARC1666 chemistry + PS 4-5, 3' idT, DPBS Mg/Ca, BSA, RT) is reported as 0.05 nM.

With “GGGGCTACTTTATCCGTTCCTCCTAGTGGGTAGCCCC [ARC1405]” the Kd ([1]; 2'-OMe at 1-4,7,33-37, PS 22-23, 3' idT [2'-OMe at 1-4,7,33-37, PS 22-23, 3' idT cap after 37 (left out)], DPBS Mg/Ca, BSA) was 2.5 nM.

AGCCUGGGGACCCAUGGGGGGCU [ARC1563] was tested, and the Kd ([1]; ARC1335 chemistry with dI17, 3' idT [17=dI (G parent), 24=3' inverted dT], DPBS Mg/Ca, 0.1 mg/mL BSA, RT) was 2.2 nM.

In the case of “AGCCUGGGNGANCCCAUNNNGNNGNNGCUN [ARC2977]”, the Kd ([1]; ARC1666 chemistry + PS 10-11, 3' idT, DPBS Mg/Ca, BSA, RT) is reported as 0.05 nM.

AGGCUGGGGACCCAUGGGGGCCU [ARC1244] gave a Kd ([1]; dRmY, dPBS Ca/Mg + BSA, RT) of 450 nM.

In the case of “GGGGCACATTCATCCGTCCCTCCTAGTGGTGTGCTCC [DNA clone SEQ 128]”, the Kd [1] is reported as 0.5 nM.

Sequence “GGGGCTACTTTATCCGTTCCTCCTAGTGGGTAGCCCCN [ARC1294]” has a Kd ([1]; 2'-OMe at 30, 3' idT, DPBS Mg/Ca, BSA) of 8 nM.

In the case of “AGCCUNGGGNGACCCAUNNNGNNGNNGCUN [ARC2973]”, the Kd ([1]; ARC1666 chemistry + PS 5-6, 3' idT, DPBS Mg/Ca, BSA, RT) is reported as 0.05 nM.

With “GGGGCTACTTTATCCGTTCCTCCTAGTGGGTAGCCCC [ARC1400]” the Kd ([1]; 2'-OMe at 1-4,7,33-37, PS 17-18, 3' idT [2'-OMe at 1-4,7,33-37, PS linkage 17-18 (internal N = PS, not a base), 3' inverted dT cap (terminal N, left out)], DPBS Mg/Ca, BSA) was 2.4 nM.

With “GGGGCTACTTTATCCGTTCCTCCTAGTGGGTAGCCCCT [ARC1298]” the Kd ([1]; 2'-OMe at 34, 3' idT [2'-OMe: 34, 38 = 3' inverted dT], DPBS Mg/Ca, BSA) was 0.4 nM.

AGCCUGGGGACCCAUGGGGGGCU [ARC908] showed a Kd ([1]; dRmY, 7-deaza-dG at G17 [7-deaza-dG: 17, 2'-OMe: 3-5,11-13,15,22,23, deoxy: all A,G], dPBS Ca/Mg + BSA, RT) of 3 nM.

In the case of AGCCUGGGGACCCAUGGGGGGCU [ARC1333], the Kd ([1]; 2'-OMe G2,G7,G17 and all C,U, rest 2'-deoxy, 3' idT [2'-OMe G2,C3,C4,U5,G7,C11,C12,C13,U15,G17,C22,U23, 3' inverted dT at 24], DPBS Mg/Ca, 0.1 mg/mL BSA, RT) is reported as 1.5 nM.

For AGCCUGGGGACCCAUGGGGGGCU [ARC1567], the Kd ([1]; ARC1335 pattern with dI21, 3' idT [dI21 (inosine, parent base G), 3' inverted dT24, rest ARC1335 pattern], dPBS Ca/Mg + BSA, RT) was 3.5 nM.

With “AGCCUGGGNGACCCAUNNNGNNGNNGCUNN [ARC2369]” the Kd ([1]; ARC1666 pattern, 3'-NH-PEG20K, no idT, dPBS Ca/Mg + BSA, RT) was 0.03 nM.

AGCCUGGGGACCCAUGGGGGGCU [ARC904] was tested, and the Kd ([1]; dRmY (2'-OMe C,U), 7-deaza-dG7 [7-deaza-dG at 7, 2'-OMe C3,C4,U5,C11,C12,C13,U15,C22,U23, A,G 2'-deoxy], DPBS Mg/Ca, 0.1 mg/mL BSA, RT) was 8 nM.

In the case of AGCCUGGGGACCCAUGGGGGG [ARC2345], the Kd ([1]; ARC1666 pattern without 3' idT [dI (written G) at 16,18,20, 2'-OMe 1-5,7,10-15,17, deoxy 6,8,9,16,18-21, PS 8/9,15/16,16/17,18/19,20/21, no 3' idT], dPBS + BSA, RT) is reported as 29.3 nM.

“GGGGCTACTTTATCCGTTCCTCCTAGTGGGTAGCCCCN [ARC1280]” was tested, and the Kd ([1]; 2'-OMe at 16, 3' idT, DPBS Mg/Ca, BSA) was 0.6 nM.

For AGCCUGGGGACCCAUGGGGGGCU [ARC2343], the Kd ([1]; ARC1666 pattern without 3' idT [dI (written G) at 16,18,20, 2'-OMe 1-5,7,10-15,17,22,23, deoxy 6,8,9,16,18-21, PS 8/9,15/16,16/17,18/19,20/21, no 3' idT], dPBS + BSA, RT) was 0.09 nM.

For “GGGGTACCTTTATCCGTTTCTCCTAGTGGGGTGCCCC [DNA clone SEQ 132]”, the Kd [1] was 0.4 nM.

For AGCCUGGGGACCCAUGGGGGGCU [ARC1566], the Kd ([1]; ARC1335 pattern with dI20, 3' idT [dI20 (inosine, parent base G), 3' inverted dT24, rest ARC1335 pattern], dPBS Ca/Mg + BSA, RT) was 0.1 nM.

For “GGGGCTACTTTATCCGTTCCTCCTAGTGGGTAGCCCC [ARC1395]”, the Kd ([1]; 2'-OMe at 1-4,7,33-37, PS 12-13, 3' idT [2'-OMe at 1-4,7,33-37, PS linkage 12-13 (internal N = PS, not a base), 3' inverted dT cap (terminal N, left out)], DPBS Mg/Ca, BSA) was 5.7 nM.
